Experiments:
[1] = target: glycophorin A associated protein (GPA) on mouse red blood cells (mouse); assay: preloaded mouse RBCs injected in mice; RBC vs plasma radioactivity (in vivo)
[2] = target: glycophorin A associated protein (GPA) on mouse red blood cells (mouse); assay: 125I-labeled fusion on mouse RBCs, 1% hematocrit, saturation binding (FIG. 4C)
[3] = target: human red blood cells (human); assay: 125I-labeled fusion on human RBCs, 10% hematocrit, 1 h at 37° C, gamma counting
[4] = target: glycophorin A associated protein (GPA) on mouse red blood cells (mouse); assay: 125I-labeled fusion on mouse RBCs, 10% hematocrit, 1 h at 37° C, gamma counting
[5] = target: glycophorin A associated protein (GPA) on mouse red blood cells (mouse); assay: 125I-labeled fusion injected i.v. in mice; RBC vs plasma radioactivity in blood (in vivo)
[6] = target: glycophorin A associated protein (GPA) on mouse red blood cells (mouse); assay: 125I-labeled fusion at 40 µg/ml on mouse RBCs at ~50% hematocrit in PBS/BSA or heparinated plasma, 37° C, time course

- percent of fusion in the bloodstream associated with RBCs (one hour) [1]: 90 % ID
- percent of fusion in the bloodstream associated with RBCs (three hours) [1]: 75 % ID
- Bmax (molecules/RBC) [2]: 80000
- Kd [2]: 77.9 nM
- molecules/hRBC (molecules/hRBC) [3]: 120
- molecules/mRBC (molecules/mRBC) [4]: 20000
- percent associated with RBC [5]: 90%
- 50% saturation time [6]: 30 min
B1: Ter119scFv-mRNK fusion protein (protein)
chain: RSPWPGVPTSQVKLQESGGGLVQPGGSLKLSCVASGFTFRDHWMNWVRQAPGKTMEWIGDIRPDGSDTNYAPSVRNRFTISRDNARSILYLQMSNMRSDYTATYYCVRDSPTRAGLMDAWGQGASVTVLTGGGGSGGGGSGGGGSDIQMIQSPSVLSASVGDRVTLNCKASQNINKYLNWYQQKLGEAPKVLIYNTNNLQTGIPSRFSGSGSGTDFTLTISSLQPEDFATYFCFQHYTWPTFGGGTKLELKRASSSSGSSSSGAAAPKGKSEDCYVGKGVTYRGTHSLTTSQASCLPWNSIVLMGKSYTAWRTNSQALGLGRHNYCRNPDGDARPWCHVMKDRKLTWEYCDMSPCSTCGLRQYKRPQFRIKGGLYTDITSHPWQAPIFVAAAASPGERFLCGGVLISSCWVLSAAHCFLERFPPNHLKVVLGRTYRVVPGEEEQTFEIEKYIVHEEFDDDTYDNDIALLQLRSQSKQCAQESSSVGTACLPDPNLQLPDWTECELSGYGKHEASSPFFSDRLKEAHVRLYPSSRCTSQHLFNKTVTNNMLCAGDTRSGGNQDLHDACQGDSGGPLVCMINKQMTLTGIISWGLGCGQKDVPGVYTKVTNYLDWIHDNMKQ
modifications: 125I radiolabel in the binding assays
